Here are results for two molecules from US20210163594A1 (INVENRA, published 2021).

In one test the target is CTLA4 (UniProt P16410 36-161, limits assumed). Kind of test: BLI (Octet), antigen immobilized, B-Body as analyte. The text has this:
In each instance, the antigen is immobilized and the B-Body is the analyte.
In general terms: BLI is a label-free optical method that tracks binding on a fibre tip over time.

Another test concerns the target T1, CD3.
T1 chain: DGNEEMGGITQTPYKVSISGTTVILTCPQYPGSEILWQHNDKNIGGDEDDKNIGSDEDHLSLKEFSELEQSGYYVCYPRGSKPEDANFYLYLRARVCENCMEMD
Kind of test: BLI (Octet), two-fold serial dilution (200-12.5 nM) of the monovalent B-Body.

Sequence of CTLA4 (P16410 36-161 limits assumed): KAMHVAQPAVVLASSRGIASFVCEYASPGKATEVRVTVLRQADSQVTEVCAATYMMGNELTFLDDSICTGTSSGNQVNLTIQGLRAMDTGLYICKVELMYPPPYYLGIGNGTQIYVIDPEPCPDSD

B1: BC1 (bispecific antibody)
chain 1: not shown
chain 2: EVQLVESGGGLVQPGGSLRLSCAASGFTFSDYDIHWVRQAPGKGLEWVGDITPYDGTTNYADSVKGRFTISADTSKNTAYLQMNSLRAEDTAVYYCARLVGEIATGFDYWGQGTLVTVSSASPREPQVYTDPPSRDELTKNQVSLTCLVKGFYPSDIAVEWESNGQPENNYKTTPPVLDSDGSFFLYSKLTVDKSRWQQGNVFSCSVMHEALHNHYTQKSLSLSGEC
chain 3: not shown
chain 4: QVQLVESGGGVVQPGRSLRLDCKASGITFSNSGMHWVRQAPGKGLEWVAVIWYDGSKRYYADSVKGRFTISRDNSKNTLFLQMNSLRAEDTAVYYCATNDDYWGQGTLVTVSSASTKGPSVFPLAPSSKSTSGGTAALGCLVKDYFPEPVTVSWNSGALTSGVHTFPAVLQSSGLYSLSSVVTVPSSSLGTQTYICNVNHKPSNTKVDKKVEPPKSC
notes: also called bivalent bispecific B-Body BC1; bivalent 1×1 construct BC1
As to B1, in the test with CTLA4, the binding result was “no binding”.

B2: non-mutagenized SP34-89 monovalent B-Body (bispecific antibody, V domains shown)
VH: EVQLVESGGGLVQPGGSLRLSCAASGFTFNTYAMNWVRQAPGKGLEWVARIRSKYNNYATYYADSVKGRFSISRDDSKNTAYLQMNSLRAEDTAVYYCVRHGNFGNSYVSWFAYWGQGTLVTV
VL: QAVVTQEPSLTVSPGGTVTLTCRSSTGAVTTSNYANWVQQKPGQAPRGLIGGTNKRAPWTPARFSGSLLGGKAALTITGAQAEDEADYYCALWYSNLWVFGGGTKLTVL
notes: VL and VH were cloned into one arm of a 1×1 BC1 B-Body; Constant parts as in the BC1 scaffold; also called SP34-89 VL-WT/SP34-89 VH-WT
By Kd is commonly meant the equilibrium constant for the complex coming apart. A higher Kd goes with weaker binding. What is called koff is the first-order rate constant of dissociation. One may read the kon as the second-order rate constant of association. Read a low kon as slow association. In the test with CD3, B2 displayed a Kd of 0.023 µM, a koff of 0.0071 s⁻¹ and an association rate constant (kon) of 300000 M⁻¹ s⁻¹.
